Substitutions are numbered along the chain they refer to. In names and notes the source's numbering stands. Where two headings read alike, the source gives them in different places.
B1: TSC 1005 (other)
chain: EPKSSDKTHTCPPCPAPPVAAPSVFLFPPKPKDTLMISRTPEVTCVVVDVSHEDPEVKFNWYVDGVEVHNAKTKPREEQYNSTYRVVSVLTVLHQDWLNGKEYKCAVSNKALPAPIEKTISKAKGQPREPQVYTLPPSRDELTKNQVSLTCLVKGFYPSDIAVEWESNGQPENNYKTTPPVLDSDGSFFLYSKLTVDKSRWQQGNVFSCSVMHEALHNHYTQKSLSLSPG
notes: IgG1 Fc with E233P, L234V, L235A, deletion of G236, G237A, K322A (EU); also called PVAdel TSC01005
B2: FXX01066 (bispecific antibody)
chain: EVQLVQSGAEVKKPGASVKVSCKASGYTFTSYWMNWVRQAPGQGLEWMGNIYPSGGSTNYAQKFQGRVTMTVDTSTSTVYMELSSLRSEDTAVYYCASFSDGYYAYAMDYWGQGTLVTVSSGGGGSGGGGSGGGGSGGGGSEIVMTQSPATLSLSPGERATLSCRASQSVSSYLNWYQQKPGQAPRLLIYYASRRHTGIPARFSGSGSGTDFTLTISSLQPEDFAVYYCQQGYNLPYTFGQGTKVEIKEPKSSDKTHTCPPCPAPPAAAPSVFLFPPKPKDTLMISRTPEVTCVVVDVSHEDPEVKFNWYVDGVEVHNAKTKPREEQYNSTYRVVSVLTVLHQDWLNGKEYKCAVSNKALPAPIEKTISKAKGQPREPQVYTLPPSRDELTKNQVSLTCLVKGFYPSDIAVEWESNGQPENNYKTTPPVLDSDGSFFLYSKLTVDKSRWQQGNVFSCSVMHEALHNHYTQKSLSLSPGGGGSPSSYVLTQPPSVSVAPGQTARITCGGNNIGSKSVNWFQQKPGQAPVLVVYDDSGRPSGIPERFSGSTSGNTATLTISRVEAGDEADYYCQVWDSSSDHVVFGGGTKLTVLGGGGSGGGGSGGGGSGGGGSQVQLVESGGGVVQPGRSLRLSCAASGFTLSYYGMHWVRQAPGKGLEWVAAISHDGSDKYYADSVKGRFTISRDNSKNTLYLQMNSLRAEDTAVYYCSNDQFDPWGQGTLVTVSSR
notes: ADAPTIR scFv-Fc-scFv, anti-4-1BB (VH-VL) N-terminal, anti-OX40 C-terminal, PAA (del) Fc; also called FX01066
B3: FXX01101 (bispecific antibody)
chain: B2 chain with T690R
notes: ADAPTIR anti-4-1BB (HL) x anti-OX40 with T86R; PAA (del) Fc; also called FX01101
B4: FXX01119 (bispecific antibody)
chain: B2 chain with Q500K, I541V, E543N, T690R
notes: ADAPTIR anti-4-1BB x anti-OX40, pI variant; PAA (del) Fc
B5: FXX01115 (bispecific antibody)
chain: B2 chain with I541V, E543N, T690R
notes: as for B4
B6: FXX01111 (bispecific antibody)
chain: B2 chain with I541V, E543N
notes: as for B4
B7: FXX01102 (bispecific antibody)
chain: B2 chain with Q500K, T690R
notes: ADAPTIR anti-4-1BB (HL) x anti-OX40 with Q17K and T86R; PAA (del) Fc; also called FX01102

How the values were obtained:
Cyno RIII = target: T1, Cyno RIII (cynomolgus monkey, UniProt Q8SPW2 17-208); experiment: SPR, Fc captured, receptor as analyte
T1 construct: extracellular domain
Procedure: (§1) For these experiments, all four flow cells of a CM5 sensor chip were immobilized with goat F(ab′)2 anti-human Fc (Jackson ImmunoResearch) to a response level of ˜4000 RU. Fc variants and wild type Fc were diluted to 100 nM in HBS-EP+ and captured on the surface of the chip for 120 seconds at a flow rate of 10 μL/min. Fcγ receptors (human and cyno, all purchased from R&D Systems) and complement (C1Q, purchased from Quidel Corporation and Complement Technology, Inc) were diluted in HBS-EP+ and then flowed as analytes at 30 μL/min for 120 seconds followed by a 120 seconds dissociation. Regeneration was achieved by flowing 10 mM glycine pH 1.7 at 30 μL/min for 30 seconds followed by a 60 seconds stabilization. Flow cell 1 was always left as a blank (no captured protein) for purposes of background signal subtraction. Blank-subtracted sensorgrams for each captured Fc variant were inspected for the presence of binding to any of the Fcγ receptor proteins or complement. There are polymorphisms in the Human Fc receptors IIA and RIIIA, so both sequences were tested for binding.

Cyno RI = target: T2, Cyno RI (cynomolgus monkey, UniProt Q8SPW5 16-292); experiment: SPR, Fc captured, receptor as analyte
T2 construct: also called cyno RI receptor
Procedure: as §1

[1] = target: T3, Fc gamma receptor RIIIA V176 (human, UniProt P08637 17-208); experiment: SPR, Fc captured, receptor as analyte, relative to wild type Fc
T3 construct: soluble SPR analyte
Procedure: (§2) Fc mutations to be potentially integrated into an ADAPTIR™ bispecific construct were analyzed for binding to the common Fc receptors (human and cyno) and C1Q, which is a component of the complement activation system. SPR experiments were conducted at 25° C. in HBS-EP+ buffer on a Biacore T200 system.
as §1

Fc gamma receptor RI [2] = target: T4, Fc gamma receptor RI (human, UniProt P12314 16-288); experiment: as above
T4 construct: also called FcγRI
Procedure: as §2, §1

Fc gamma receptor RI [3] = target: T4, Fc gamma receptor RI; experiment: SPR, construct immobilized, receptor injected at 100 nM
Procedure: (§3) Fcγ receptor binding to bispecific proteins was measured by Surface Plasmon Resonance on a Biacore 8K instrument at room temperature. Bispecific proteins with modified Fc regions to reduce binding to Fcγ receptors were directly immobilized on the surface of a CM5 sensor chip to a surface density of 4000 RU. A bispecific ADAPTIR™ protein with a wild type Fc was similarly immobilized to the surface as a positive control and used as a comparator to evaluate the reduction in binding resulting from changes incorporated into the Fc region amino acid sequence. Fcγ receptors (purchased from R&D Systems) were diluted to either 100 nM (FcγRI) or 2 μM (all other Fcγ receptors) in HBS-EP+ buffer before injecting over the surface of the prepared sensor chip at 30 μL/min for 60 seconds. Maximum RU values during association phase of each injection were used to compare the extent of binding of the modified Fc to wild type value and are reported in Table 17 below.

Full-length Cyno OX40 = target: T5, Full-length Cyno OX40 (cynomolgus monkey, UniProt P43489 29-277 (human entry)); experiment: flow cytometry on CHOK1SV cells transfected with cynomolgus OX40, goat anti-human Fc secondary antibody, MFI (Mean)
T5 construct: on CHO-K1SV cells; also called OXF004; cynomolgus OX40
T5 chain: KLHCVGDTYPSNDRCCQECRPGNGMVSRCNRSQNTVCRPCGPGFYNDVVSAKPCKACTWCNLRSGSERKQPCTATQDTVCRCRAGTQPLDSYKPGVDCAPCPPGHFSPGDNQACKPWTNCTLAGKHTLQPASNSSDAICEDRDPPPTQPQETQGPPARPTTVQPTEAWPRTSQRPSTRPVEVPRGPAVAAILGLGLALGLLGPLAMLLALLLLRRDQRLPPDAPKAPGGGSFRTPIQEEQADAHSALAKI

Full-length Human 4-1BB [4] = target: T6, Full-length Human 4-1BB (human, UniProt Q07011 24-255); experiment: flow cytometry, Jurkat cells expressing human 4-1BB
T6 construct: also called FOB005; CD137
Procedure: Serial dilutions of ADAPTIR™ constructs were incubated with cells transfected with human or cynomolgus ECD and subsequently labelled with a fluorescently-conjugated goat-α-human Fc secondary antibody. […] (See Example 16.)
Target sequence in this assay (Q07011 24-255): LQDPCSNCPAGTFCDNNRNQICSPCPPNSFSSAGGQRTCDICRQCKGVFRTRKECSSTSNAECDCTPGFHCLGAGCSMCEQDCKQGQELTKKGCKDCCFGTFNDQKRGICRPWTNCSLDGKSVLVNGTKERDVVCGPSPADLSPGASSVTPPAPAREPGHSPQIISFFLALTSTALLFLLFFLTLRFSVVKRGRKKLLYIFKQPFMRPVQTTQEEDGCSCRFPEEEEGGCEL

Full-length Human OX40 [5] = target: T7, Full-length Human OX40 (human, UniProt P43489 29-277); experiment: cell-based or functional assay
T7 sequence: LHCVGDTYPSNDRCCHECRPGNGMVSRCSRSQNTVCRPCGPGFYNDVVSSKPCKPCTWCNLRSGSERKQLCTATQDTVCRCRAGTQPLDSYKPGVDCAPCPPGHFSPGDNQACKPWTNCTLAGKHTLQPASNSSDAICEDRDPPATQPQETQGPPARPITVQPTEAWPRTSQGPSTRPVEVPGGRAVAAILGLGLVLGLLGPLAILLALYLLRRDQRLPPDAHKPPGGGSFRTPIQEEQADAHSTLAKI

Full-length Human 4-1BB [6] = target: T6, Full-length Human 4-1BB; experiment: cell-based or functional assay
Target sequence in this assay (Q07011 24-255): as the sequence (Q07011 24-255) above

Full-length Human 4-1BB [7] = target: T6, Full-length Human 4-1BB; experiment: flow cytometry, Jurkat cells expressing human 4-1BB; remark: listed apart in the source
Full-length Human OX40 [8] = target: T7, Full-length Human OX40; experiment: flow cytometry, CHO cells expressing human OX40
Full-length Human OX40 [9] = target: T7, Full-length Human OX40; experiment: flow cytometry, CHO cells expressing human OX40; remark: listed apart in the source
[10] = target: T3, Fc gamma receptor RIIIA V176; experiment: SPR, construct immobilized, receptor injected at 2 uM
Procedure: as §3

Fc gamma receptor RIIIB = target: T8, Fc gamma receptor RIIIB (human, UniProt O75015 17-200); experiment: as above
T8 construct: soluble SPR analyte
Procedure: as §3

T3 sequence (P08637 17-208 F176V): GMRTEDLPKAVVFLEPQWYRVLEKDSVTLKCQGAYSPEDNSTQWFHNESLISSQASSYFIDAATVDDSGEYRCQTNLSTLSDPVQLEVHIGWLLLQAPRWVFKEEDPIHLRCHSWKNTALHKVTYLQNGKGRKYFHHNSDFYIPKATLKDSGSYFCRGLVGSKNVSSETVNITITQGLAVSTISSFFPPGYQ
T4 sequence (P12314 16-288 limits assumed): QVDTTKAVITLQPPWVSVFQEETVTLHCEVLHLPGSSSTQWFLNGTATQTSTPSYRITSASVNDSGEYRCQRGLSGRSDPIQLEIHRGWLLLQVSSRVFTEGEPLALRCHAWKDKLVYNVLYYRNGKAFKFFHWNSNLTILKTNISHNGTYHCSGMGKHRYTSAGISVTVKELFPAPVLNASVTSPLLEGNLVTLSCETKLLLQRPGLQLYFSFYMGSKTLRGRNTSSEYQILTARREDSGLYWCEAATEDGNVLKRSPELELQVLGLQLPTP
T8 sequence (O75015 17-200): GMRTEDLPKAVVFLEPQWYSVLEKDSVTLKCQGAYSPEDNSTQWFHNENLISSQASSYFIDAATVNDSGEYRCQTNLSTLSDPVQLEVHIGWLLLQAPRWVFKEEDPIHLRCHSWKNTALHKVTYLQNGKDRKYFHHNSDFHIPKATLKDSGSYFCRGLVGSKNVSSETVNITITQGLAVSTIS
T2 sequence (Q8SPW5 entry or part of it limits assumed): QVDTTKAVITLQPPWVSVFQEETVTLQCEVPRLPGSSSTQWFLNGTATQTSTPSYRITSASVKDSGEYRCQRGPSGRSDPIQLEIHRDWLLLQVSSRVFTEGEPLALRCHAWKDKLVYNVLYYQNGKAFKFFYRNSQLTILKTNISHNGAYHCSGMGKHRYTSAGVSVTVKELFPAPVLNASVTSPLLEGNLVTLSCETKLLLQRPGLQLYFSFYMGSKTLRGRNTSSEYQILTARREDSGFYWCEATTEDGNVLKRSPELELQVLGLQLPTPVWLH
T1 sequence (Q8SPW2 17-208): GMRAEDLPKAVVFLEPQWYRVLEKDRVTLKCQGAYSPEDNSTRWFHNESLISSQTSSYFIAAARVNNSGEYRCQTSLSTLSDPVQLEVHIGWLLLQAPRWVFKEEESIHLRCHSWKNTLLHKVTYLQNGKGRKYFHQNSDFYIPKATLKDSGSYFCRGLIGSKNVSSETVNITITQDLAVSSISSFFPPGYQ

| Binder | Max RU value during association (Fc gamma receptor RI [3]) [RU] | EC50 (read off the curve) (Full-length Cyno OX40) [nM] | OX40 Reporter Assay EC50 (Full-length Human OX40 [5]) [nM] | OX40 Reporter Assay Max induction (Full-length Human OX40 [5]) | 4-1BB Reporter Assay EC50 (Full-length Human 4-1BB [6]) [nM] | 4-1BB Reporter Assay Max induction (Full-length Human 4-1BB [6]) | EC50 (Full-length Human 4-1BB [7]) [nM] | max MFI (Full-length Human 4-1BB [7]) [MFI] | EC50 (Full-length Human OX40 [9]) [nM] | max MFI (Full-length Human OX40 [9]) [MFI] | also measured |
| --- | --- | --- | --- | --- | --- | --- | --- | --- | --- | --- | --- |
| B1 | – | – | – | – | – | – | – | – | – | – | binding result (Cyno RIII): no binding; binding result (Cyno RI): no binding; binding result [1]: binds; binding result (Fc gamma receptor RI [2]): binds |
| B2 | 0 | ~1 | 0.012 | 1.99e+06 | 0.018 | 5.5e+06 | 0.23 | 4710 | 0.29 | 10400 | EC50 (Full-length Human 4-1BB [4]): 0.27 nM; Max MFI (Full-length Human 4-1BB [4]): 4540 MFI; EC50 (Full-length Human OX40 [8]): 0.57 nM |
| B3 | 0 | ~0.8 | 0.011 | 2.03e+06 | 0.019 | 6.96e+06 | 0.25 | 4850 | 0.31 | 10500 | – |
| B4 | – | – | – | – | – | – | – | – | – | – | Max RU value during association [10]: 0 RU |
| B5 | – | – | – | – | – | – | – | – | – | – | Max RU value during association (Fc gamma receptor RIIIB): 0 RU; Max RU value during association [10]: 0 RU |
| B6 | 0 | – | – | – | – | – | – | – | – | – | – |
| B7 | – | ~0.8 | 0.01 | 2.05e+06 | 0.014 | 6.94e+06 | 0.18 | 4850 | 0.34 | 10500 | – |

Reference: patent US20220242962A1 (APTEVO RESEARCH AND DEVELOPMENT, published 2022)
